Experimental data as given in US12411143B2, “CD146 and uses thereof as a biomarker and as a therapeutic target in the diagnosis and treatment of fibrosis” (ASSISTANCE PUBLIQUE HÔPITAUX DE MARSEILLE, priority 2018, dated 2025).

Experiments:
[1] = system: Human cardiac fibroblasts (HCFs); test: Cell proliferation of human cardiac fibroblasts (BrdU assay); assay type: cell-based
Description: Human cardiac fibroblasts (HCFs) (PromoCell) are grown in Fibroblast Growth Medium 3 Supplement Pack (PromoCell) in an environment at 37° C. with controlled atmosphere. The HCFs are grown between passages 3 and 7.
To perform the stimulations, the fibroblasts are seeded at a density of 30 000 cells/cm^2 in complete culture medium. After 24 hours of adhesion, the cell culture medium is replaced with medium not containing growth factor (minimal medium) for 4 hours.
This medium is then replaced with minimal medium supplemented with 25, 50, 75 or 100 ng/mL of CD146s or with 2.5, 5 or 10 ng/mL of TGF-β for the proliferation study.
Cell proliferation is determined using a proliferation kit (BrdU Assay, Roche). An anti-BrdU antibody diluted 1/100 in its diluent solution is incubated for 90 minutes at 37° C. After removal and rinsing of excess antibody, a second antibody directed specifically against anti-BrdU and coupled to peroxidase is incubated for 30 minutes at room temperature and then removed. Detection is performed by the addition of 100 μL of enzyme substrate. […] Staining intensity, proportional to BrdU incorporation, is read on a spectrophotometer at 450 nm. The results are calculated by subtracting the background noise observed in a culture well containing no cells but having received the same amount of BrdU. Percentage of proliferation is then calculated for each condition. […]

ECFC [2] = test: mRNA expression of sCD146 isoforms in ECFC (qPCR); assay type: cell-based, human; conditions: for expression of short CD146, long CD146, I5-13-sCD146 and I10-sCD146 at the mRNA level: endothelial cells treated with recombinant proteins
Description: C: The mRNA expression of I10-sCD146 and I5-13-sCD146 isoforms was analyzed by qPCR in ECFC after treatment of the cells for 24 h with the recombinant shed soluble CD146 50 ng/ml, VEGF 20 ng/ml, TNF 20 ng/ml, TGF beta 5 ng/ml, and netrin 50 ng/ml. Cells were also treated for 15 min with WNT5a 200 ng/ml and 1 h with WNT3a 50 ng/ml. Results are the mean values +/−SEM of 3 experiments. *: P<0.05, experimental vs Control.
Total cellular RNA was isolated from cells, reverse transcribed into cDNA and the resulting cDNA was subjected to qPCR.

[3] = system: mouse ischemic hind limb model; test: Mouse hind limb ischemia model; assay type: in vivo; conditions: for blood flow (laser-Doppler): 2 μg locally twice a week for 28 days; for blood flow (laser-Doppler) / vascularisation of muscle (isolectin B4 labelling): compared to PBS; for vascularisation of muscle (isolectin B4 labelling): 28 days after surgery; for number of vessels in the legs (angiography pictures) / vessel density in calf, thigh and whole leg (angiography quantification): D28, compared to PBS
Description: A: Ischemic mice were treated with PBS or 2 μg of rh-sCD146/rh-I10-sCD146/rh-I5-13-sCD146 or VEGF. Blood perfusion rate was monitored by laser-Doppler. Results are mean values of 6 different animals in each group and expressed as % of the control leg. *, **, ***: P<0.05, P<0.01, P<0.001, I10-sCD146 vs. PBS; $$, $$$: P<0.01, P<0.001, I5-13-sCD146 vs. PBS; ##, ###: P<0.01, P<0.001, shed sCD146 vs. PBS; £: P<0.05, VEGF vs. PBS.
B: Blood vessels examination in hind limb muscle sections from control (PBS) and shed rh-sCD146/rh-I10-sCD146/rh-I5-13-sCD146 treated animals 28 days after surgery. Vessels are labelled with isolectin B4.**, ***: P<0.01, P<0.001, experimental vs control. $: P<0.05, I10-sCD146 vs I5-13-sCD146.
C: Angiographic pictures of control (PBS) and shed sCD146/I10-sCD146/I5-13-sCD146 treated animals at D28. Pictures are representative of the 6 animals in each group. Average of the density of the vessels was expressed as right versus left leg in the different parts of the legs (calf, thigh) and in the whole leg. *, **: P<0.01, P<0.001 experimental vs PBS in calf; $: P<0.05, experimental vs PBS in thigh; #, ##: P<0.05, P<0.01, experimental vs PBS in whole leg.
In sections of muscles from ischemic mice, vascularisation was visualized with isolectin B4 (Lifetechnologies) ( 1/100). Tissue sections were examined by fluorescence microscopy (Leica sp5, Leica, Nanterre, France).
Female mice were subjected to unilateral hind limb ischemia by complete resection of the entire left femoral artery. After surgery, animals were split in four treatment groups: one control group injected in ischemic adductor muscles twice a week with PBS for 28 days; three experimental groups treated as the control groups with the three different recombinant human soluble CD146 (rh-sCD146, rh-I5-13-sCD146, rh-I10-sCD146) 2 μg.
The ratio of the ischemic versus normal hind limb blood flow was measured using a laser doppler blood flow analyzer. At different time points post-surgery (days 1, 3, 7, 14, 21 and 28), animals were subjected to 3 consecutive laser scannings over the regions of interest (leg and feet). Blood flow was expressed as the ischemic versus normal hind limb ratio.
The animals were deeply anesthetised with mix of Ketamine Xylasine (100 mg/kg and 10 mg/kg respectively) and perfused intracardially with 2 ml of lipiodole. CT 3D images were obtained with a microPET/microCT rodent model scanner (nanoPET/CTO, Mediso) with features below: 70 kVp energy, exposure time of 300 ms and 720 projections and were quantified.

[4] = system: renal and cardiac endothelial cells; test: In vitro endothelial-mesenchymal transition; assay type: cell-based
ECFC [5] = test: Permeability of ECFC monolayer to dextran-FITC; assay type: cell-based, human; conditions: treatment with recombinant proteins
Description: D: ECFC were transfected with siRNA targeting ADAM10 or Tace and with a control siRNA (C). The permeability of the ECFC monolayer grown on semi-permeable filters was determined using dextran-FITC. Results are the mean values+/−SEM of 3 experiments.
E: ECFC were transfected with plasmid vectors encoding ADAM10 (p-ADAM10) or Tace (p-Tace) and with a control plasmid vector (C). The permeability of the ECFC monolayer grown on semi-permeable filters was determined using dextran-FITC. Results are the mean values+/−SEM of 3 experiments. *: P<0.05, **: P<0.01, ***: P<0.001, experimental vs Control.
ECFC were seeded at 60,000 cells per well on membrane inserts (porosity 1 μm) of a 24-multiwell double chamber system (Multiwell Insert System, BD Biosciences, Le Pont de Claix, France) after siRNA transfection or not. Confluent endothelial monolayers were then incubated for 24 h in EGM-2 medium in the presence or absence of the different forms of sCD146. The FITC-dextran (sigma) was added at the apical surface of the cells and was allowed to migrate for 1.5 h at 37° C. Basolateral FITC-dextran was then measured using a Cytofluor Series 4000 Fluorescence (PerSeptiveBiosystems, Framingham, MA).

Q: Which “cell proliferation of cardiac fibroblasts” value ([1]; 25, 50, 75 or 100 ng/mL of CD146s) does the source give for “sCD146: recombinant human soluble form of CD146 corresponding to the shed sCD146, obtained from Biocytex” here?
A: significant, dose-dependent increase in cell proliferation

Q: What about the “amount giving the maximum pro-proliferative effect” value ([1]; HCFs) of the same molecule?
A: 50 ng/mL

Q: And the “I5-13-sCD146 mRNA level” value (ECFC [2]; ECFC, 24 h treatment (WNT5a 15 min, WNT3a 1 h))?
A: not modified

Q: What about the “blood flow (laser-Doppler)” value [3] of the same molecule?
A: able to increase blood flow

Q: What about the “vascularisation of muscle (isolectin B4 labelling)” value [3] of the same molecule?
A: vascularisation was increased

Q: What about the “number of vessels in the legs (angiography pictures)” value [3] of the same molecule?
A: increase in the number of vessels

Q: What about the “vessel density in calf, thigh and whole leg (angiography quantification)” value [3] of the same molecule?
A: significantly increased

Q: And the endothelial-mesenchymal transition [4]?
A: induces in vitro an endothelial-mesenchymal transition

B1: rh-I5-13-sCD146: recombinant spliced variant of soluble CD146 containing introns 5 and 13, SEQ ID NO: 8 (protein, listed as Homo sapiens)
chain: MVYIVRQFLLYNVSGSVYLDQLIVLLTAKFSILRIAGSRVHHSPFSGHLDGCSFLSLQHSLHTSLDMSRHENVFLGLTLSSKSAGLKGFQLAFVPGLLQGTGGYLDGPLPTPVDNPRVGLEVGLRLSLPPLPPCPGVHIQSSQTVESSGLYTLQSILKAQLVKEDKDAQFYCELNYRLPSGNHMKESREVTVPVFYPTEKVWLEVEPVGMLKEGDRVEIRCLADGNPPPHFSISKQNPSTREAEEETTNDNGVLVLEPARKEHSGRYECQGLDLDTMISLLSEPQELLVNYVSDVRVSPAAPERQEGSSLTLTCEAESSQDLEFQWLREETGQVLERGPVLQLHDLKREAGGGYRCVASVPSIPGLNRTQLVNVAIFGPPWMAFKERKVWVKENMVLNLSCEASGHPRPTISWNVNGTASEQDQDPQRVLSTLNVLVTPELLETGVECTASNDLGKNTSILFLELVNLTTLTPDSNTTTGLSTSTASPHTRANSTSTGKPGLAREQGCARASFLPCPSPESPVQKGE
Q: What does the source list for B1?
A: transendothelial permeability (ECFC [5]): nor treatment with recombinant proteins corresponding to these variants modified transendothelial permeability; expression of short CD146, long CD146, I5-13-sCD146 and I10-sCD146 at the mRNA level (ECFC [2]): did not modify the expression; blood flow (laser-Doppler) [3]: able to increase blood flow; vascularisation of muscle (isolectin B4 labelling) [3]: vascularisation was increased; number of vessels in the legs (angiography pictures) [3]: increase in the number of vessels; vessel density in calf, thigh and whole leg (angiography quantification) [3]: significantly increased

B2: rh-I10-sCD146: recombinant spliced variant of soluble CD146 containing intron 10, SEQ ID NO: 9 (protein, listed as Homo sapiens)
chain: MGLPRLVCAFLLAACCCCPRVAGVPGEAEQPAPELVEVEVGSTALLKCGLSQSQGNLSHVDWFSVHKEKRTLIFRVRQGQGQSEPGEYEQRLSLQDRGATLALTQVTPQDERIFLCQGKRPRSQEYRIQLRVYKAPEEPNIQVNPLGIPVNSKEPEEVATCVGRNGYPIPQVIWYKNGRPLKEEKNRVHIQSSQTVESSGLYTLQSILKAQLVKEDKDAQFYCELNYRLPSGNHMKESREVTVPVFYPTEKVWLEVEPVGMLKEGDRVEIRCLADGNPPPHFSISKQNPSTREAEEETTNDNGVLVLEPARKEHSGRYECQGLDLDTMISLLSEPQELLVNYVSDVRVSPAAPERQEGSSLTLTCEAESSQDLEFQWLREETGQVLERGPVLQLHDLKREAGGGYRCVASVPSIPGLNRTQLVNVAIFGEALPLGRDQVTPSGVVFKLFDKKPPAALGSSGAEGEAG
Q: B2 was tested. Which transendothelial permeability (ECFC [5]) did it give?
A: nor treatment with recombinant proteins corresponding to these variants modified transendothelial permeability

Q: And the “expression of short CD146, long CD146, I5-13-sCD146 and I10-sCD146 at the mRNA level” value (ECFC [2])?
A: did not modify the expression

Q: What about the “time after first injection at which a significant effect on blood flow was observed” value ([3]; 2 μg locally twice a week) of the same molecule?
A: 3 days

Q: What about the “blood flow (laser-Doppler)” value [3] of the same molecule?
A: able to increase blood flow

Q: What about the “vascularisation of muscle (isolectin B4 labelling)” value [3] of the same molecule?
A: vascularisation was increased

Q: What about the “number of vessels in the legs (angiography pictures)” value [3] of the same molecule?
A: increase in the number of vessels

Q: What about the “vessel density in calf, thigh and whole leg (angiography quantification)” value [3] of the same molecule?
A: significantly increased
